Source: IntAct's records for PubMed 21346153

B1: Peroxiredoxin-6 (Rattus norvegicus (Rat)), O35244 (parent)
chain: MPGGLLLGDEAPNFEANTTIGHIRFHDFLGDSWGILFSHPRDFTPVCTTELGRAAKLAPEFAKRNVKLIALSIDSVEDHFAWSKDINAYNGAAPTEKLPFPIIDDKDRDLAILLGMLDPAEKDEKGMPVTARVVFIFGPDKKLKLSILYPATTGRNFDEILRVVDSLQLTASNPVATPVDWKKGESVMVLPTLPEEEAKQLFPKGVFTKELPSGKKYLRYTPQP

Variants of: B1
Details: with 1433e_human YWHAE

Row | Variant | effect of a mutation on the interaction
1 | MPGGLLLGDEAPNFEANTTIGHIRFHDFLGDAWGILFSHPRDFTPVCTTELGRAAKLAPEFAKRNVKLIALSIDSVEDHFAWSKDINAYNGAAPTEKLPFPIIDDKDRDLAILLGMLDPAEKDEKGMPVTARVVFIFGPDKKLKLSILYPATTGRNFDEILRVVDSLQLTASNPVATPVDWKKGESVMVLPTLPEEEAKQLFPKGVFTKELPSGKKYLRYTPQP [S32A] | decreasing interaction strength

Variants of: B1
Details: with 1433e_mouse Ywhae

Row | Variant | effect of a mutation on the interaction
2 | MPGGLLLGDEAPNFEANTTIGHIRFHDFLGDAWGILFSHPRDFTPVCTTELGRAAKLAPEFAKRNVKLIALSIDSVEDHFAWSKDINAYNGAAPTEKLPFPIIDDKDRDLAILLGMLDPAEKDEKGMPVTARVVFIFGPDKKLKLSILYPATTGRNFDEILRVVDSLQLTASNPVATPVDWKKGESVMVLPTLPEEEAKQLFPKGVFTKELPSGKKYLRYTPQP [S32A] | decreasing interaction strength
